± gives the standard deviation of the averaged measurements.
How the values were obtained:
Saccharomyces cerevisiae [1] = assay: protein stability index of tFT-peptide fusion (C-terminal peptide) (PSI (0-1 scale)); higher = more stable (slower turnover)
Protocol: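 MPS profiling in S. cerevisiae of the tFT-X12 degron library: putative degron peptides plus stable controls, 12 aa, fused to the C-terminus of a sfGFP-mCherry timer. Cells are FACS-sorted into 8 mCherry/sfGFP bins and deep-sequenced. PSI runs from 0 (unstable) to 1 (stable). Backgrounds are wild type, das1Δ and doa10Δ at 30 °C, and wild type, das1Δ, cdc34-1 and cdc53-1 at 37 °C; 2-3 technical replicates each.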

Saccharomyces cerevisiae [2] = assay: as above; settings: genetic background: wild type; temperature: 30 C
[3] = genetic background: cdc34-1, temperature: 37 C
[4] = genetic background: cdc53-1, temperature: 37 C
[5] = genetic background: das1 deletion, temperature: 30 C
[6] = genetic background: das1 deletion, temperature: 37 C
[7] = genetic background: doa10 deletion, temperature: 30 C
[8] = genetic background: wild type, temperature: 30 C
[9] = genetic background: wild type, temperature: 37 C
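Also: PSI is a weighted mean of sequencing reads over stability bins, variants kept only with over 10 reads, mCherry proximal and sfGFP distal, peptide attached via GGGS linker.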

| Sequence | protein stability index (Saccharomyces cerevisiae [1]; [3]) | protein stability index (Saccharomyces cerevisiae [1]; [4]) | protein stability index (Saccharomyces cerevisiae [1]; [5]) | protein stability index (Saccharomyces cerevisiae [1]; [6]) | protein stability index (Saccharomyces cerevisiae [1]; [7]) | protein stability index (Saccharomyces cerevisiae [1]; [8]) | protein stability index (Saccharomyces cerevisiae [1]; [9]) | protein stability index (Saccharomyces cerevisiae [2]) |
| --- | --- | --- | --- | --- | --- | --- | --- | --- |
| RWPLVIRSLIVF | 0.196 ± 0.0088 | 0.226 ± 0.0098 | 0.251 ± 0.026 | 0.325 ± 0.019 | 0.214 ± 0.00073 | 0.22 ± 0.017 | 0.233 ± 0.01 | 0.2944 ± 0.0027 |
| YAFLWCVFYLSF | 0.228 ± 0.0071 | 0.235 ± 0.03 | 0.222 ± 0.028 | 0.337 ± 0.01 | 0.216 ± 0.0098 | 0.196 ± 0.017 | 0.305 ± 0.0082 | 0.289 ± 0.021 |
| PPPLPPPSPSRP | 0.66 ± 0.024 | 0.7072 ± 0.0012 | 0.677 ± 0.02 | 0.7025 ± 0.0061 | 0.695 ± 0.026 | 0.6727 ± 0.0031 | 0.68331 ± 0.00024 | 0.421 ± 0.0055 |
| INILVIWRKNHV | 0.463 ± 0.00091 | 0.671 ± 0.041 | 0.5213 ± 0.0049 | 0.662 ± 0.014 | 0.0744 ± 0.0074 | 0.0776 ± 0.024 | 0.114 ± 0.021 | 0.129 ± 0.048 |
| YCCDYFMFVLVV | 0.148 ± 0.0029 | 0.189 ± 0.024 | 0.206 ± 0.044 | 0.3012 ± 0.0022 | 0.184 ± 0.009 | 0.183 ± 0.032 | 0.248 ± 0.01 | 0.255 ± 0.033 |
| VFFFVSFFAFSS | 0.213 ± 0.0054 | 0.3558 ± 0.0034 | 0.22 ± 0.029 | 0.406 ± 0.0024 | 0.172 ± 0.016 | 0.179 ± 0.04 | 0.3544 ± 0.0014 | 0.288 ± 0.053 |
| YTLWFLAWGLVF | 0.262 ± 0.036 | 0.308 ± 0.016 | 0.241 ± 0.033 | 0.3865 ± 0.0028 | 0.209 ± 0.011 | 0.22 ± 0.034 | 0.36 ± 0.025 | 0.315 ± 0.023 |
| VLVLLVCVAALV | 0.1393 ± 0.00032 | 0.222 ± 0.0053 | 0.163 ± 0.023 | 0.295 ± 0.017 | 0.1463 ± 0.00088 | 0.163 ± 0.025 | 0.244 ± 0.014 | 0.239 ± 0.0026 |
| CLAGALSWLRRG | 0.704 ± 0.034 | 0.7646 ± 0.006 | 0.662 ± 0.015 | 0.745 ± 0.022 | 0.637 ± 0.013 | 0.646 ± 0.019 | 0.703 ± 0.022 | 0.732 ± 0.018 |
| LLGDFAVLTCVF | 0.468 ± 0.049 | 0.496 ± 0.039 | 0.372 ± 0.024 | 0.4825 ± 0.0011 | 0.343 ± 0.0054 | 0.377 ± 0.027 | 0.465 ± 0.022 | 0.453 ± 0.0086 |
| VGLLFGWVWSLW | 0.644 ± 0.02 | 0.72401 ± 0.00029 | 0.56 ± 0.026 | 0.6999 ± 0.0055 | 0.5556 ± 0.0007 | 0.545 ± 0.0096 | 0.674 ± 0.015 | 0.485 ± 0.021 |
| LRALGPRIYRIS | 0.661 ± 0.076 | 0.747 ± 0.025 | 0.645 ± 0.015 | 0.747 ± 0.016 | 0.194 ± 0.0089 | 0.199 ± 0.012 | 0.417 ± 0.016 | 0.317 ± 0.035 |
| ESVPLLIVLHLV | 0.304 ± 0.058 | 0.62 ± 0.085 | 0.415 ± 0.032 | 0.5979 ± 0.0039 | 0.0857 ± 0.02 | 0.0885 ± 0.0083 | 0.07176 ± 0.00058 | 0.0881 ± 0.034 |
| RLFYRLSFVYFL | 0.398 ± 0.025 | 0.4469 ± 0.0038 | 0.378 ± 0.029 | 0.514 ± 0.017 | 0.169 ± 0.0068 | 0.175 ± 0.016 | 0.243 ± 0.015 | 0.2655 ± 0.0014 |
| LAVRSGFPFGLF | 0.642 ± 0.034 | 0.757 ± 0.013 | 0.674 ± 0.012 | 0.783 ± 0.036 | 0.117 ± 0.017 | 0.122 ± 0.03 | 0.224 ± 0.014 | 0.249 ± 0.0026 |
| LVVFLRFFLRVL | 0.105 ± 0.0097 | 0.106 ± 0.002 | 0.166 ± 0.028 | 0.265 ± 0.039 | 0.175 ± 0.003 | 0.114 ± 0.033 | 0.158 ± 0.016 | 0.199 ± 0.0035 |
| RLLLLLTCIIYI | 0.173 ± 0.006 | 0.219 ± 0.023 | 0.194 ± 0.016 | 0.276 ± 0.052 | 0.183 ± 0.026 | 0.16 ± 0.046 | 0.267 ± 0.032 | 0.256 ± 0.015 |
| EFFTLYDLVRFI | 0.742 ± 0.042 | 0.79 ± 0.05 | 0.669 ± 0.048 | 0.791 ± 0.05 | 0.192 ± 0.00011 | 0.232 ± 0.013 | 0.434 ± 0.04 | 0.38 ± 0.025 |
| CHSICLVILEFI | 0.183 ± 0.0091 | 0.338 ± 0.049 | 0.25 ± 0.05 | 0.436 ± 0.011 | 0.183 ± 0.03 | 0.198 ± 0.028 | 0.384 ± 0.011 | 0.274 ± 0.034 |
| GPWVIFSHLLLT | 0.459 ± 0.037 | 0.49 ± 0.017 | 0.405 ± 0.017 | 0.546 ± 0.013 | 0.258 ± 0.0084 | 0.249 ± 0.02 | 0.3963 ± 0.0027 | 0.404 ± 0.023 |

| Sequence | protein stability index (Saccharomyces cerevisiae [1]; [3]) | protein stability index (Saccharomyces cerevisiae [1]; [4]) | protein stability index (Saccharomyces cerevisiae [1]; [5]) | protein stability index (Saccharomyces cerevisiae [1]; [6]) | protein stability index (Saccharomyces cerevisiae [1]; [7]) | protein stability index (Saccharomyces cerevisiae [1]; [8]) | protein stability index (Saccharomyces cerevisiae [1]; [9]) | protein stability index (Saccharomyces cerevisiae [2]) |
| --- | --- | --- | --- | --- | --- | --- | --- | --- |
| HYTSFAVPPLVY | 0.524 ± 0.037 | 0.476 ± 0.025 | 0.366 ± 0.018 | 0.5275 ± 0.0048 | 0.3404 ± 0.0026 | 0.376 ± 0.018 | 0.487 ± 0.011 | 0.481 ± 0.024 |
| VTGYLSTLTMLC | 0.6 ± 0.015 | 0.654 ± 0.0097 | 0.551 ± 0.02 | 0.671 ± 0.023 | 0.231 ± 0.0097 | 0.247 ± 0.03 | 0.5014 ± 0.0011 | 0.3832 ± 0.0015 |
| FFGVLFRVSLFF | 0.12 ± 0.035 | 0.22 ± 0.011 | 0.191 ± 0.022 | 0.3075 ± 0.0027 | 0.175 ± 0.0079 | 0.173 ± 0.017 | 0.262 ± 0.0057 | 0.266 ± 0.035 |
| IKERRKVSMKVY | 0.639 ± 0.023 | 0.688 ± 0.02 | 0.519 ± 0.035 | 0.677 ± 0.018 | 0.321 ± 0.009 | 0.373 ± 0.015 | 0.557 ± 0.032 | 0.474 ± 0.022 |
| VRLSQVNRLICT | 0.554 ± 0.022 | 0.566 ± 0.065 | 0.437 ± 0.024 | 0.585 ± 0.021 | 0.394 ± 0.019 | 0.426 ± 0.0098 | 0.573 ± 0.017 | 0.524 ± 0.052 |
| CCVLGDRCIGSD | 0.699 ± 0.018 | 0.735 ± 0.011 | 0.635 ± 0.013 | 0.76 ± 0.019 | 0.631 ± 0.013 | 0.655 ± 0.022 | 0.718 ± 0.013 | 0.678 ± 0.057 |
| VRYCFFWVRAVV | 0.286 ± 0.027 | 0.335 ± 0.019 | 0.233 ± 0.04 | 0.4555 ± 0.0013 | 0.173 ± 0.0088 | 0.194 ± 0.022 | 0.3718 ± 0.0019 | 0.278 ± 0.051 |
| RMCPWVSVRVGV | 0.558 ± 0.028 | 0.5891 ± 0.0027 | 0.382 ± 0.036 | 0.5922 ± 0.0023 | 0.3537 ± 0.0019 | 0.391 ± 0.013 | 0.5825 ± 0.00065 | 0.485 ± 0.0071 |
| GRGRGGRWGRLC | 0.642 ± 0.05 | 0.739 ± 0.016 | 0.646 ± 0.0085 | 0.75048 ± 0.00029 | 0.201 ± 0.023 | 0.215 ± 0.024 | 0.476 ± 0.023 | 0.269 ± 0.05 |
| GYVVYRRYILIR | 0.0341 ± 0.0027 | 0.0546 ± 0.03 | 0.111 ± 0.017 | 0.131 ± 0.026 | 0.219 ± 0.0094 | 0.0783 ± 0.012 | 0.0969 ± 0.011 | 0.141 ± 0.0084 |
| PVTAVYFVLYIW | 0.134 ± 0.0025 | 0.231 ± 0.017 | 0.177 ± 0.032 | 0.332 ± 0.019 | 0.143 ± 0.01 | 0.167 ± 0.026 | 0.298 ± 0.035 | 0.251 ± 0.03 |
| CSFPTFRSLLLL | 0.532 ± 0.018 | 0.647 ± 0.014 | 0.502 ± 0.018 | 0.671 ± 0.014 | 0.218 ± 0.0036 | 0.23 ± 0.021 | 0.438 ± 0.058 | 0.3 ± 0.078 |
| RWRRWCVVLFVV | 0.197 ± 0.043 | 0.307 ± 0.021 | 0.301 ± 0.025 | 0.456 ± 0.0067 | 0.0648 ± 0.015 | 0.0689 ± 0.013 | 0.0816 ± 0.01 | 0.117 ± 0.012 |
| WAFVVCGAVFFW | 0.264 ± 0.025 | 0.358 ± 0.031 | 0.299 ± 0.014 | 0.466 ± 0.005 | 0.289 ± 0.024 | 0.282 ± 0.036 | 0.412 ± 0.022 | 0.358 ± 0.019 |
| PPSPPPPPPSPF | 0.695 ± 0.031 | 0.7371 ± 0.0055 | 0.683 ± 0.0043 | 0.7378 ± 0.0022 | 0.721 ± 0.031 | 0.679 ± 0.033 | 0.719 ± 0.034 | 0.304 ± 0.025 |
| FLFIFFFFLISF | 0.208 ± 0.018 | 0.1806 ± 0.00038 | 0.256 ± 0.02 | 0.311 ± 0.027 | 0.344 ± 0.0055 | 0.242 ± 0.021 | 0.295 ± 0.011 | 0.284 ± 0.018 |
| VCFWCLYVMFSL | 0.46 ± 0.043 | 0.494 ± 0.01 | 0.383 ± 0.019 | 0.463 ± 0.0068 | 0.372 ± 0.0057 | 0.363 ± 0.021 | 0.471 ± 0.022 | 0.418 ± 0.018 |
| RGDCFLVLCVWR | 0.499 ± 0.022 | 0.535 ± 0.015 | 0.366 ± 0.032 | 0.563 ± 0.017 | 0.348 ± 0.0047 | 0.362 ± 0.026 | 0.541 ± 0.0062 | 0.485 ± 0.0086 |
| LVVGCFLTFCFG | 0.241 ± 0.013 | 0.366 ± 0.012 | 0.26 ± 0.028 | 0.441 ± 0.0089 | 0.212 ± 0.0024 | 0.236 ± 0.038 | 0.402 ± 0.0085 | 0.315 ± 0.028 |
